# Patent US20140087436
# Where a chain is given by its changes, count along the chain named.
# Columns and labels:
# Assay in all cases: cell_activity
# [1] = target: T1, CbbR G125S/V265M (Ralstonia eutropha) (UniProt P42722); conditions: beta-galactosidase, chemoheterotrophic; chemoautotrophic 6770
# T1 sequence: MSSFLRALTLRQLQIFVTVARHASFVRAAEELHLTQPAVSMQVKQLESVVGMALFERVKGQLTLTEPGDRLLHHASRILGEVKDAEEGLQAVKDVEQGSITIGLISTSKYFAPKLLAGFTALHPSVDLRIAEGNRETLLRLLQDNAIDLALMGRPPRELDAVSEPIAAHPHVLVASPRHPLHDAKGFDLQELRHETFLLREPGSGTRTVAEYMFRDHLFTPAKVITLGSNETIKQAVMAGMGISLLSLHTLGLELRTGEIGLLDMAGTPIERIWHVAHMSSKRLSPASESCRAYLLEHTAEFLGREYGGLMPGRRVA
# [2] = target: T2, CbbR G205D (Ralstonia eutropha) (UniProt P42722); conditions: beta-galactosidase, chemoheterotrophic; chemoautotrophic 2241
# T2 sequence: T1 sequence with S125G, G205D, M265V
# [3] = target: T3, CbbR E87K (Ralstonia eutropha) (UniProt P42722); conditions: beta-galactosidase, chemoheterotrophic; chemoautotrophic 5515
# T3 sequence: T1 sequence with E87K, S125G, M265V
# [4] = target: T4, CbbR G205D/G118D (Ralstonia eutropha) (UniProt P42722); conditions: beta-galactosidase, chemoheterotrophic; chemoautotrophic 3939
# T4 sequence: T1 sequence with G118D, S125G, G205D, M265V
# [5] = target: T5, CbbR A117V (Ralstonia eutropha) (UniProt P42722); conditions: beta-galactosidase, chemoheterotrophic; chemoautotrophic 6793
# T5 sequence: T1 sequence with A117V, S125G, M265V
# [6] = target: T6, CbbR G125D (Ralstonia eutropha) (UniProt P42722); conditions: beta-galactosidase, chemoheterotrophic; chemoautotrophic 6777
# T6 sequence: T1 sequence with S125D, M265V
# [7] = target: T7, CbbR T232A (Ralstonia eutropha) (UniProt P42722); conditions: beta-galactosidase, chemoheterotrophic; chemoautotrophic 5269
# T7 sequence: T1 sequence with S125G, T232A, M265V
# [8] = target: T8, CbbR D144N (Ralstonia eutropha) (UniProt P42722); conditions: beta-galactosidase, chemoheterotrophic; chemoautotrophic 6932
# T8 sequence: T1 sequence with S125G, D144N, M265V
substance,measurement,setting,value
cbb promoter in lacZ reporter strain,activity,[1],53 nmol/min/mg
same,activity,[2],488 nmol/min/mg
same,activity,[3],1600 nmol/min/mg
same,activity,[4],1170 nmol/min/mg
same,activity,[5],254 nmol/min/mg
same,activity,[6],108 nmol/min/mg
same,activity,[7],212 nmol/min/mg
same,activity,[8],809 nmol/min/mg
